From the supplement of paper PMC9732359
± gives the uncertainty stated by the source.

Assay: protein stability index of a GFP-peptide fusion (yeast GPS) (PSI 1-4); higher = more stable; sorted into four equal gates, so the index is relative within each strain
How it was run: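 Tiled yeast protein peptides of 17 residues were each joined downstream of GFP, on plasmids that also express Cherry. The pooled library was maintained in yeast, and mid-log cultures in leucine-free medium were sorted into four equal gates on the GFP/Cherry ratio. Plasmids from every gate were amplified by PCR and sequenced on Illumina, with barcodes linking reads to strains. The protein stability index of a peptide is its gate-number-weighted read frequency summed over the gates.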

Row | Sequence | protein stability index (doa10∆) | protein stability index (pdr5∆) | protein stability index (san1∆) | protein stability index (ubr1∆)
1 | NENETRDKVCKQINEAR [PGD1] | 3.14 ± 0.14 | 3.58 ± 0.19 | 3.28 ± 0.079 | 3.09 ± 0.1
2 | AVIAAIMQEAGLRAVRK [RPT3] | – | 1.15 ± 0.19 | – | –
3 | IKETKENDEEFYKNKYS [RPN2] | 1.34 ± 0.13 | 1.5 ± 0.19 | 1.31 ± 0.26 | 1.51 ± 0.21
4 | KNPKFSNAFYSVLRDTL [SMC4] | 2.1 ± 0.084 | 2.34 ± 0.11 | 2.13 ± 0.093 | 2.13 ± 0.11
5 | VRELGILCIFEGEKCHP [SEC65] | 2.01 ± 0.052 | 2.43 ± 0.064 | 2.67 ± 0.051 | 2.45 ± 0.042
6 | ILSSLYLLSIWVKKFKW [CYT1] | 2.22 ± 0.091 | 1.5 ± 0.069 | 1.77 ± 0.089 | 1.3 ± 0.055
7 | KSLESQRYVKSVKSVKF [RPC34] | 1.26 ± 0.081 | 1.61 ± 0.058 | 2.16 ± 0.098 | 1.55 ± 0.084
8 | DIDDELNELETLIKKKQ [SMC2] | 3.31 ± 0.16 | 3.11 ± 0.1 | 2.99 ± 0.078 | 3.24 ± 0.078
9 | WKIPQNDIPQTESPLKT [SSN2] | 2.71 ± 0.082 | 2.23 ± 0.058 | 2.13 ± 0.08 | 2.38 ± 0.039
10 | KLTRELEKKFQDRHVIF [RPS7A] | 3.08 ± 0.14 | 3.5 ± 0.18 | 3.09 ± 0.086 | 3.18 ± 0.1
11 | MFDAFVSFYFEDGTIES [SIN4] | 2.33 ± 0.078 | 2.76 ± 0.062 | 2.52 ± 0.059 | 3.07 ± 0.062
12 | LRPLFTRYELYIKNILE [YLR335W/NUP2] | 1.6 ± 0.053 | 1.88 ± 0.044 | 1.8 ± 0.081 | 1.93 ± 0.033
13 | LKRADYTAVDTAKLQMR [RPN14] | – | 3.33 ± 0.23 | 2.76 ± 0.1 | –
14 | SIVGVDLSSAASASGAA [FAS2] | 1.77 ± 0.13 | 1.53 ± 0.11 | – | 1.62 ± 0.18
15 | IEANVTVKTSDDYVLRI [RPS1A] | 2.98 ± 0.035 | 2.9 ± 0.038 | 2.96 ± 0.036 | 2.726 ± 0.027
16 | PYPGSPMHSIMPNSSLQ [DSN1] | 2.85 ± 0.091 | 2.88 ± 0.052 | 2.63 ± 0.057 | 2.83 ± 0.034
17 | NALTVGDFDKFDSLIKV [RPN9] | 2.14 ± 0.13 | 1.59 ± 0.11 | 1.3 ± 0.14 | 1.3 ± 0.11
18 | SLMDTLITPAVRNTAPN [YCG1] | 1.6 ± 0.061 | 1.73 ± 0.082 | 1.26 ± 0.19 | 1.92 ± 0.058
19 | LSQLCAVPLQIVSPQSN [RPO21] | 1.88 ± 0.063 | 1.91 ± 0.058 | 1.9 ± 0.084 | 1.87 ± 0.04
20 | KRADISKRRITEELSIT [SMC1] | 1.46 ± 0.086 | 1.73 ± 0.078 | 1.72 ± 0.12 | 1.83 ± 0.08
21 | EESWEKVVEFAITHMID [SCL1] | 2.62 ± 0.087 | 2.92 ± 0.098 | 3.06 ± 0.083 | 2.91 ± 0.07
22 | KAPEQFIENFLTNDTFE [YML103C/NUP188] | 2.84 ± 0.12 | 3.16 ± 0.1 | 2.93 ± 0.12 | 3.02 ± 0.075
23 | ETHSKKRKKEANEEPNT [ITC1] | 2.69 ± 0.096 | 2.6 ± 0.072 | 3.13 ± 0.058 | 2.17 ± 0.058
24 | PYDSNNSNTNLNSLSPQ [SWI1] | 2.96 ± 0.049 | 2.87 ± 0.051 | 2.76 ± 0.054 | 2.79 ± 0.04
25 | TLERVHLSYCSNLTIYP [GRR1] | 2.92 ± 0.067 | 3 ± 0.067 | 2.99 ± 0.15 | 3 ± 0.05
26 | SSEGFYSKIKHLGLDDP [SIR2] | 1.83 ± 0.2 | 2.72 ± 0.14 | 1.96 ± 0.17 | 1.2 ± 0.14
27 | SAKPTFSFSKSEEERKS [YOR098C/NUP1] | 1.96 ± 0.14 | – | 1.93 ± 0.24 | 2.79 ± 0.25

Row | Sequence | protein stability index (doa10∆) | protein stability index (pdr5∆) | protein stability index (san1∆) | protein stability index (ubr1∆)
28 | ATANATANATANVNASA [DSN1] | 2.78 ± 0.043 | 3 ± 0.037 | 3.17 ± 0.032 | 2.918 ± 0.025
29 | AAAQAQSKIDLTKKKNE [SEM1] | 2.9 ± 0.079 | 2.83 ± 0.096 | 2.94 ± 0.082 | 2.87 ± 0.083
30 | NLDFDPRDVIKGKDFEI [FAS1] | 3.47 ± 0.25 | 2.9 ± 0.29 | 3.32 ± 0.11 | 3.46 ± 0.1
31 | GRENFVYANNPEVSDDG [SIR3] | 3.05 ± 0.096 | 3.08 ± 0.085 | 2.8 ± 0.1 | 3.03 ± 0.068
32 | EKGSWEQLSPQDVLQML [BRR2] | 3.05 ± 0.12 | 3.27 ± 0.15 | 3.42 ± 0.12 | 3.03 ± 0.088
33 | QEASQVTFIFGELKRGN [MED11] | 2.07 ± 0.062 | 2.75 ± 0.052 | 2.75 ± 0.066 | 2.6 ± 0.043
34 | IPFPDHNQSPRNTYQSA [RPB2] | 2.97 ± 0.083 | 3.06 ± 0.067 | 3.22 ± 0.056 | 2.78 ± 0.063
35 | YKAQADTFYMNVESVGS [RPB3] | 2.75 ± 0.088 | 2.34 ± 0.058 | 2.98 ± 0.068 | 3.07 ± 0.079
36 | VMIAEIPTLAIDSVEVE [RPB3] | 2.3 ± 0.18 | 2.65 ± 0.11 | – | –
37 | KLSCIQLNCIDTQFTKL [SRB8] | 2.09 ± 0.046 | 1.92 ± 0.062 | 2.31 ± 0.091 | 2.61 ± 0.045
38 | VNNRDSEKGFSKEQIHG [YCS4] | – | 3.49 ± 0.18 | – | –
39 | AGKQLEDGRTLSDYNIQ [RPS31] | 2.81 ± 0.11 | 2.94 ± 0.16 | 3.6 ± 0.094 | 3.15 ± 0.1
40 | PNERKAKQAKIRAGEFD [SNF2] | 3.62 ± 0.12 | 3.66 ± 0.18 | 2.99 ± 0.17 | 3.5 ± 0.14
41 | EEAKEEVTEEQAEATEW [RPS0A] | 3.48 ± 0.12 | 3.49 ± 0.1 | 3.02 ± 0.13 | 3.64 ± 0.091
42 | DKQARKQRTKKEDKSEA [SNF2] | 3.64 ± 0.14 | 3.54 ± 0.13 | 3.25 ± 0.077 | 3.29 ± 0.11
43 | VYAQQSTVQTPITASMA [PGD1] | 1.59 ± 0.056 | 1.95 ± 0.079 | 1.51 ± 0.09 | 1.86 ± 0.042
44 | GKRHIFDVNTLCLMTWK [CDC53] | 1.25 ± 0.061 | 1.75 ± 0.066 | 1.44 ± 0.14 | 2.08 ± 0.085
45 | FYRGNYTDFENTFQKTV [FAS1] | 2.41 ± 0.074 | 2.63 ± 0.062 | 2.34 ± 0.1 | 2.67 ± 0.056
46 | DALVKRFKNSVKWYHFD [PRE7] | 3.19 ± 0.13 | 3.37 ± 0.12 | 3.18 ± 0.072 | 3.08 ± 0.07
47 | YALQSVKLPRAFIDERA [RRP43] | – | 1.33 ± 0.17 | 1.3 ± 0.24 | 1.33 ± 0.075
48 | EFTKINTPLVGAAFKVI [YJL039C/NUP192] | 1.63 ± 0.039 | 1.91 ± 0.044 | 1.6 ± 0.084 | 1.69 ± 0.037
49 | SIQEQIQEFQGNPYIEL [SNF5] | 3.16 ± 0.071 | 3.3 ± 0.08 | 3.49 ± 0.082 | 3.31 ± 0.059
50 | WKFKSLIEILRLRALQL [RRI2] | 1.45 ± 0.093 | 1.21 ± 0.075 | 1.14 ± 0.13 | 1.08 ± 0.075
51 | ITGEDEVLCSRIIEKSV [RRP45] | 2 ± 0.051 | 2.45 ± 0.054 | 2.1 ± 0.098 | 1.89 ± 0.059
52 | DNFSPHQNVIIGSNGSG [SMC3] | – | 2.89 ± 0.14 | 2.78 ± 0.088 | 3.28 ± 0.079
53 | VLPLGSVPEGTIVSNVE [RPL2A] | 3.19 ± 0.12 | 3.33 ± 0.11 | 2.78 ± 0.18 | 3.12 ± 0.094
